# Measurements: the domain aggregation screens of Martell et al. (2025)
# Test: soluble fraction after stress (log2 fold change); higher = more stays soluble; pooled small domains, quantitative proteomics
# Details: stress: pH 4
# Procedure, shortened: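 Custom libraries of small protein domains were pooled and measured with high-throughput quantitative proteomics after pH 4 stress. The read-out is the fold change in the amount of each domain that stays soluble after the acid stress, taken as a measure of aggregation propensity. Fold changes are on a log2 scale, and higher values mean more of the domain stayed soluble.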
row,Sequence,soluble fraction (log2)
1,HMSGEDYLERILMLKEKHGNVRAIDIANSMNFSKPSVSIALHKLSENGYVVIQNNGAIELTEKGLEVAT,-0.0506
2,HMDAVLMEYDRLLALELTEDPDVYQDLLDKVREQSLGADGRVTDKYREKFDAVATRFDDYEDNYQW,-0.62
3,HMSAEKDGEWLTLTEAAKHLQVSPHVIRRLIQTGALPAEQVMRGAPHQIRAADLDTDRVKTMIAR,0.228
4,HMPGRLSRREVEVIELTARGLPAAEMAVRLGISANTIEFHRRRIMQKLGVANAAEMVRRATELGW,-0.905
5,HMPTSILEKILNSAAEQFTRYGFKTITMDDIARHAGVSKKTLYQHFETKLDIIVAAVTHFHTMKF,-1.65
6,HMIYRTTSVPIDNISTQKFNLQEGWIEMNKNEVEDFIRQKNLELVVTDSNVMLDKFALNGDPNKFKVFKY,0.104
7,HMTIGPALAIGGNKVEMTQQGKIQVTNPQGKIKTLSQDEFKKQLVKNADKIEAGQDFEFKKD,0.339
8,HMGAAITEAEAKQIALDHAGVSESETERMRVKLGRDDGVQEYEVNFYVGNREYDYDINAATGEIRSHDSE,0.22
9,HMRGVNEISYTTLISEVSGGNVRDVVISGDEITGTFNDGSRFHSFSPDDPQFIERLNDQGVIINVKPL,-0.904
10,HMRQISDPTALASMVDKVIEDNPSAVADYRRGESKALGFLIGRVMQSSGGKANPKMIRGLLVKNLES,0.371
11,HMPYPSPADLARMDELIAWVKDEGRLPRDRSGQRSERSMARWLAARRREAAEGTLDPAYRDGLAQVPGWR,-0.304
12,HMEQQVDYTQFIQDVRQGQIREVDVDRNGVINGIKRSGENFVTVIPGGYDRDLINDLVKQGVNATGEL,0.14
13,HMADLTIDGVEYTKVSPTGTLTLEKVYTKNVTPADGQYYIQTGTKTVRVATDAEVAVIKAGGF,0.247
14,HMNIAESIRKYRKASGLTQEEMAKRLGVTTPAVSKWENGITNPDIALLAPIARLFHISVDTLLSYR,0.0976
15,HMNVESMVGKQGKVVVEIDNISAKGMIKVDGMEWTARSVDGEIIPKDSLVAVVSVEGVKAMVRKAE,0.15
16,HMGRNSTPKEPLKKFEVSPITEKEVRILDGRFGPYITDGATNVTVPKTITIEEITFERALDMLAEKAAKGP,-0.153
17,HMDGLDFIINENGKIANINEEGELLAKGENIMLGYYKDSISTNNTINNGWLHTGDIAKIDNDGFIYL,-0.123
18,HMAFYQDIAVDLRKQIIDGVYPKNSRLPNQAELAKLYTTSRVTIQKALKILQIEGLIEGRQGSGSYVKGP,0.0757
19,HMRILGIDPGSVVTGYGVIDKSGNYLRHVLHGEIKPHKGYLLSEVLMDIFSKLSAVIVETNPQSV,0.146
20,HMNLWIDNTQVINDWTEGASERSGSIYLTAGVKPIKMQYFDSVLNAKAILRWQGPGINKSVVPSSALTPG,-0.209
21,HMKNSAAKETILAFLKKNGGELFTQMQIIEKFQKMIPAPVLRITLEELLNKGQVEITSKGKYYLSVKGS,-0.903
22,HMSLSVEESYKLLDISPSAGDEEITKKFRLLALKYHPDKNRSKIEWANNIMSRLNQAYSVIMSSRFESNAE,0.211
23,HMWSGEPFLDELRHADTLLETDPEAALAEYRALADKGSAAAMMALGNAYASGSHVARDEGEAEHWYRRAA,-0.752
24,HMRVVPEILERAVAVFEALGVDRLPSSTLADRLGYDSPEALADVLRPLGVRPKKYRDGKSTARGYLAADLG,-0.284
25,HMDIRLMPGTVLTREYQGIEHRVTVAQDGQYEFEGRRYPSLSMIAREITGTRWSGPLFFGVK,0.141
26,HMSLPDREVVLETSSDSYYHFKTDHFQRQITYSAVRNAPVRLVTISAERAFEVISLNRRGERPEHLE,-1.77
27,HMDVPVEVFMERIVTALREGRKTTFSELMEGKPERGKVIGTFLALLQLSKGQQIQIHQEQRTGEISIEGGA,-1.03
28,HMDETFTITFDPNGGTLNGSKTKTVSLGDIVYGKLPTASKTGYSFIGWFTEKEGGEQISSATKIIASDLTL,-0.204

row,Sequence,soluble fraction (log2)
1,HMKKTETVRFTTNVTHGTKIKETDVEVVKISNSALPDKVVKNKTEVIGKYATADLFKGDFATENKVTD,0.192
2,HMHNQIGDKIRELRTRSNLTQADLGKLVGVSMQAVSKWERGGTPDIDVLLSVAKYFNISLDEMVGRT,-1.63
3,HMPKLSNNHMAVWQAIRSRTAKGEPSTRAVIRDDLKAAGMDTSKHFSRWLTKLIDLGMVVKDGENLSIR,0.219
4,HMPASDPNEKQILRFLTEHQVITRKETQALLDVSQSTAGRVLKAMVDNGQIKQLGGSRNTRYELPM,0.149
5,HMALKRVAPQGEDKLSAQLDGVEFDKLIPWLGMLEHDHRIAIVNLSIDRANATGLVNARVIL,0.251
6,HMDEYILTLDEVKELLKSKDYDDLKNVLKWSNKFQKDTIIQTAISEKVSDANVINIIKEITGQDITSLIV,-1.12
7,HMREELIALYRAIARLSEDEQELLNLFYFARRPLSEIAQLTGMTPGAAKTRLYRARRHLRREMEEDGYG,-0.653
8,HMRKPDLTSVRTLIRSVSKLARHLKISPNGIYRWISVNRIPGAHVVKVANYYDVEIRDLVHLTGSD,-0.578
9,HMDLEGLSNKELVTLRGQIQDDLNKWATEVGIIDPKNRPDDYNRALQSLEDAKRQRSAIDAKL,-0.38
10,HMNPESRRSELIDAATKLFFSRGYTATSIRDILDAVDDRTASPSVFYYYFESKEAIYQAVLQRYTD,-1.34
11,HMSSLREQVADALRAHLVSGRMRPGVLYSAPKLAAEFGVSATPVREAMLDLVSEGLVDVVRNKGFRVT,0.018
12,HMEAADAGTLAQRAAQYFNEKNYAAALDALERRAAMAPETTELRMMRGWSLLHLNRKDEARNAFATLG,-0.188
13,HMHVVVIDKQGALSYQGKAITLLDLKNIVIDVPKETPFLIKADKDIHLQSFVEVLDLIKTAGFKKVSLQ,-0.459
14,HMTGLRETIPAALDGERLDRVVALLGDVSRSRASAALEAERVTLDGEVVTLRSHRVREGEELTVAGFE,0.177
15,HMSKLIDQELINFFKNQIESKSFRYGVSIEDSYEEIKSNQIKFYGEQEDKLKAIDNAFIELKRERAGIR,-0.293
16,HMNNWRRSLEREVTASLARGDRDIFDGLNRSFEAALITKALEHTGGRRIEAATLLGIGRNTLTRKIQDLGL,-0.79
17,HMEKGIVSNKTDKGYGFIRSSTGESIFVHINNVGKEAYEQLAKGSRVLFDYEVTDRGKRATKVMLEPSES,-0.401
18,HMAESSLPKMPRDESKYIYHSVQPGETVYSLSKRYSVSESDIVKSNPGIDITKLSLGLEVAIPRI,0.0402
19,HMKIDNIIIYITGGVKKEGVYELPDGSRISDAIEQAEGLKANADTSSINLAYKLEDGMKIKIPLQGEN,-0.664
20,HMVSYTLPTLHTGKNWYVDFTAYDPAEQKMKRKKYMLDGISKITERRKRAVDIIATVTARLRSGWNPWA,0.0419
21,HMKKYEFIEDLPGVGPATAQKLRDLGYHTVESLAMATARELEPIGVGEKKAFSMIEAARSAIGFS,0.00186
22,HMTSSQRDSILEFLKTRKDHPTADVVYMNVRKSFPNISLGTVYRNLTLLSDIGQIAKIRVGDGVDHFDADT,-0.073
23,HMSESKYKMIKNWIKSKILDGTLVPNQKIYSESELMEIFDVSRHTVRLAIGELVSEGYLFKRQGTGTFVTQ,-0.763
24,HMLIDSNNYFFYKVKPKEGFYSLQKKLGVNRSEIEKHNPSLINEVLKEGMILKIPKYLLNFDLN,-0.214
25,HMASDYYTTTANLNLRSGAGTTYGSLIIIEKGDTVKLLENVNDHWVKIQYDDKIGYVAMSYLLPIE,-0.113
26,HMNQSEMIGSRLKEERLQQKLTLKQLSEKVGLSIGYLSQVERGYGTLSLSALKKLSSALGLEMSTFFD,0.121
27,HMPRDYYAVLEVSVSSTPVQIRQAYQRLARRYSPDVNFLDRDTEALFEEIVEAYRVLSNPTARTLYDRG,-3.04
